Assay results as given in the supplement of paper PMC7125110.
± gives the standard error. This sample holds only a part of the variants without activity.

B1: glmS ribozyme (parent)
chain: AUAAAAGCGCCAGAACUACAGAAAUGUAGUUGACGAGGAGGAGGUUUAUCGAAUUUUCGGCGGAUGCCUCCAAA

Legend:
Settings in all cases: with glucosamine-6-phosphate
glucosamine-6-phosphate [1] = variants of: B1; experiment: self-cleavage kobs at 40 uM GlcN6P; higher = faster cleavage; RNA array
How it was run: (§1)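 Barcoded ribozyme variants on sequenced MiSeq chips were transcribed in situ by E. coli RNA polymerase and followed at 37 °C through a hybridised Cy3 probe. Glucosamine-6-phosphate at 40 μM to 10 mM in HEPES/KCl/Mg(OAc)2 buffer was flowed in, and tiles were imaged over ~14 h. Signals were normalised to baseline and to non-cleaving reference variants, and per-tile medians were fit to one- or two-exponential decays to give kobs. Weighted Michaelis–Menten fits across concentrations gave kcat and KM.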

glucosamine-6-phosphate [2] = variants of: B1; experiment: self-cleavage kobs at 10000 uM GlcN6P; higher = faster cleavage; RNA array
How it was run: as §1

glucosamine-6-phosphate [3] = variants of: B1; experiment: self-cleavage kobs at 160 uM GlcN6P; higher = faster cleavage; RNA array
How it was run: as §1

glucosamine-6-phosphate [4] = variants of: B1; experiment: self-cleavage kobs at 640 uM GlcN6P; higher = faster cleavage; RNA array
How it was run: as §1

glucosamine-6-phosphate [5] = variants of: B1; experiment: self-cleavage kobs at 2500 uM GlcN6P; higher = faster cleavage; RNA array
How it was run: as §1

Variant	self-cleavage kobs at 40 uM GlcN6P (glucosamine-6-phosphate [1])	self-cleavage kobs at 10000 uM GlcN6P (glucosamine-6-phosphate [2])	self-cleavage kobs at 160 uM GlcN6P (glucosamine-6-phosphate [3])	self-cleavage kobs at 640 uM GlcN6P (glucosamine-6-phosphate [4])	self-cleavage kobs at 2500 uM GlcN6P (glucosamine-6-phosphate [5])
A12U U30G U56G	0.000609 ± 0.00013 s⁻¹	0.0339 ± 0.0098 s⁻¹	–	–	–
A15G A42G C68U	0.000393 ± 0.00011 s⁻¹	0.0101 ± 0.0045 s⁻¹	–	–	–
A12C A14G A53U C67G	9.17e-05 ± 2.3e-05 s⁻¹	0.00219 ± 0.00062 s⁻¹	–	–	–
C16G A53G C67A	2.96e-05 ± 1.3e-05 s⁻¹	0.000212 ± 5.9e-05 s⁻¹	–	–	–
G29C C50G C61A U65C	7.48e-05 ± 2.1e-05 s⁻¹	–	–	–	–
G29U U45G G59C C67U	< 1e-05 s⁻¹	< 1e-05 s⁻¹	–	–	–
A15U A52C G59A C70A	< 1e-05 s⁻¹	–	–	–	–
C16U C34U G37U	< 1e-05 s⁻¹	–	–	–	–
G13U C50G C61G	8.16e-05 ± 1.3e-05 s⁻¹	0.000116 ± 1.9e-05 s⁻¹	–	–	–
A14G G21U C67U	0.000937 ± 0.00021 s⁻¹	–	–	–	–
A12U A14G	0.00336 ± 0.00044 s⁻¹	–	0.00737 ± 0.0027 s⁻¹	0.0265 ± 0.0078 s⁻¹	–
C16A G62U	< 1e-05 s⁻¹	–	< 1e-05 s⁻¹	< 1e-05 s⁻¹	–
A15C U49C	< 1e-05 s⁻¹	< 1e-05 s⁻¹	< 1e-05 s⁻¹	< 1e-05 s⁻¹	< 1e-05 s⁻¹
A12G A33G U57G	< 1e-05 s⁻¹	–	–	–	–
A15C G37C G40A G43U	< 1e-05 s⁻¹	< 1e-05 s⁻¹	–	–	–
A15G G35C	< 1e-05 s⁻¹	–	–	< 1e-05 s⁻¹	< 1e-05 s⁻¹

Variant	self-cleavage kobs at 40 uM GlcN6P (glucosamine-6-phosphate [1])	self-cleavage kobs at 10000 uM GlcN6P (glucosamine-6-phosphate [2])	self-cleavage kobs at 160 uM GlcN6P (glucosamine-6-phosphate [3])	self-cleavage kobs at 640 uM GlcN6P (glucosamine-6-phosphate [4])	self-cleavage kobs at 2500 uM GlcN6P (glucosamine-6-phosphate [5])
C16A G44C C50A	< 1e-05 s⁻¹	< 1e-05 s⁻¹	–	–	–
C11U U47A A52C	< 1e-05 s⁻¹	–	–	–	–
A12G C16G A53U C71A	< 1e-05 s⁻¹	–	–	–	–
G29C G60U C61A	< 1e-05 s⁻¹	–	–	< 1e-05 s⁻¹	–
G13C A36C C71G	< 1e-05 s⁻¹	–	–	< 1e-05 s⁻¹	–
C16U U47G	0.000296 ± 4.7e-05 s⁻¹	0.00951 ± 0.0018 s⁻¹	0.000527 ± 0.00011 s⁻¹	0.00106 ± 0.00021 s⁻¹	0.00142 ± 0.00037 s⁻¹
G29C U30G U31A C50U	< 1e-05 s⁻¹	–	–	< 1e-05 s⁻¹	–
A15G U30G A33G A48C	< 1e-05 s⁻¹	–	–	–	–
A15G U31G U69C	4.45e-05 ± 1.7e-05 s⁻¹	–	–	–	–
A14C G29U C50G	0.000119 ± 3.7e-05 s⁻¹	–	–	–	–
C16A G37U G38A U45A U55G	< 1e-05 s⁻¹	< 1e-05 s⁻¹	–	–	–
G13U G35A U45A A64G	< 1e-05 s⁻¹	< 1e-05 s⁻¹	–	< 1e-05 s⁻¹	< 1e-05 s⁻¹
A12G A15G A53C C67G	< 1e-05 s⁻¹	–	–	–	–
A24C A48C G62U G63U C70G	< 1e-05 s⁻¹	< 1e-05 s⁻¹	–	–	–
A12U U49A	< 1e-05 s⁻¹	–	< 1e-05 s⁻¹	–	–
